Laboratory results as given in PMC2828957 (Molecular Biology of the Cell, 2010).

T1: GST-Sec63C (complete C-terminal domain of human Sec63, residues 210-760, N-terminal GST) (human, UniProt Q9UGP8 210-760)
T1 sequence (looked up): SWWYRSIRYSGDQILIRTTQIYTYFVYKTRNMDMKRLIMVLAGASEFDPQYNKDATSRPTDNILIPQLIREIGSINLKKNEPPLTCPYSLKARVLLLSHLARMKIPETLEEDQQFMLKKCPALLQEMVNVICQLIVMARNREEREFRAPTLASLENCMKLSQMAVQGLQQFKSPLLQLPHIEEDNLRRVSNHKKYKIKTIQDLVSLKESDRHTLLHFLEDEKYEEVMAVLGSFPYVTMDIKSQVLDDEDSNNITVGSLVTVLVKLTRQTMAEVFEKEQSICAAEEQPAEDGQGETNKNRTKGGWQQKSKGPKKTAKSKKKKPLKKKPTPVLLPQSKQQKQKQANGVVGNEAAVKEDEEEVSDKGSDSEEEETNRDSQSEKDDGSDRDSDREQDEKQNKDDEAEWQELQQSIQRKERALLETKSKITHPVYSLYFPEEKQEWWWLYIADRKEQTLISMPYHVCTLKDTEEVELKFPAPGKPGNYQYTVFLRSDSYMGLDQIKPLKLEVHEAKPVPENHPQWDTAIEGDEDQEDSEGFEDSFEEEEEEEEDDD

B1: Sec62N-ΔN10-ΔC40 (human Sec62 residues 11-155, C-terminal hexa-histidine tag) (domain or fragment, UniProt Q99442 11-155, looked up)
chain: IQEVGEPSKEEKAVAKYLRFNCPTKSTNMMGHRVDYFIASKAVDCLLDSKWAKAKKGEEALFTTRESVVDYCNRLLKKQFFHRALKVMKMKYDKDIKKEKDKGKAESGKEEDKKSKKENIKDEKTKKEKEKKKDGEKEESKKEET
B2: human Sec62N (N-terminal domain of human Sec62, residues 1-195, C-terminal hexa-histidine tag) (domain or fragment, UniProt Q99442 1-195, looked up)
chain: MAERRRHKKRIQEVGEPSKEEKAVAKYLRFNCPTKSTNMMGHRVDYFIASKAVDCLLDSKWAKAKKGEEALFTTRESVVDYCNRLLKKQFFHRALKVMKMKYDKDIKKEKDKGKAESGKEEDKKSKKENIKDEKTKKEKEKKKDGEKEESKKEETPGTPKKKETKKKFKLEPHDDQVFLDGNEVYVWIYDPVHFK

What was measured:
[1] = biological target: B2; assay: pull-down
[2] = biological target: B1; assay: pull-down
[3] = biological target: T1, GST-Sec63C (complete C-terminal domain …); assay: pull-down
[4] = biological target: T1, GST-Sec63C (complete C-terminal domain …); assay: SPR

## EGDEDQEDSEGFEDSFEEEEEEEEDDD (domain or fragment, UniProt Q9UGP8 734-760, looked up) [GST-Sec63C26 (C-terminal 26 amino acid residues of human Sec63, residues 734-760, N-terminal GST)]
[1]
  binding result: binds
[2]
  binding result: binds

## B1
[3]
  binding result: binds

## B2
[4]
  Kd: 4.78 nM
